Assay results taken from patent US20180230213A1 (AVEO PHARMACEUTICALS, published 2018).

Assays:
[1] = target: T1, human Notch3 on the cell surface (human, UniProt Q9UM47 40-2321); assay: cell-based or functional assay
[2] = target: T1, human Notch3 on the cell surface; assay: FACS on RL-952 cells (human Notch3), 4 C, one site binding fit
Protocol: (§1) Binding to cell surface human Notch3 by the antibody 4F11 was measured at 4° C., using Fluorescence Activated Cell Sorting (FACS). CHO N3 (Flp-In-CHO cells (Invitrogen) stably transfected with human Notch3), HCC2429 cells, and RL-952 cells expressing human Notch3 were washed once with PBS containing calcium chloride and magnesium chloride (Invitrogen) and harvested using cell dissociation buffer (Invitrogen). Cells were washed a second time with PBS and resuspended in FACS buffer (PBS with 0.5% BSA (Sigma-Aldrich)) for a final cell concentration of 250,000 cells per well into a 96-well v-bottom plate. Purified antibodies were diluted in FACS buffer over a concentration range of 100 nM to 0.1 nM. Cells were then incubated at 4° C. with […] of antibody for one hour, washed with FACS buffer twice, and resuspended in […] of goat-anti mouse PE-conjugated antibody (Jackson Immuno Research). Cells were incubated at 4° C. for 30 minutes in the dark, washed once with FACS buffer, and then analyzed using a Beckman Coulter Cytomics FC 500 instrument. The geometric mean of the florescent intensity was then calculated for each antibody concentration. These values were then entered into Prism software (GraphPad, La Jolla, Calif.) and used to generate a binding curve by plotting geometric mean versus antibody concentration. […]

[3] = target: T1, human Notch3 on the cell surface; assay: FACS on HCC2429 cells (human Notch3), 4 C, one site binding fit
Protocol: as §1

[4] = target: T2, recombinant human Notch3 extracellular domain (containing EGF like domains 1-11) Fc fusion protein (human, UniProt Q9UM47 40-467); assay: SPR Biacore T100, 4F11 captured by anti-mouse IgG, rhNotch3-Fc analyte, 37 C
T2 construct: domain: EGF like domains 1-11; also called rhNotch3-Fc; rhNotch3
T2 sequence (looked up): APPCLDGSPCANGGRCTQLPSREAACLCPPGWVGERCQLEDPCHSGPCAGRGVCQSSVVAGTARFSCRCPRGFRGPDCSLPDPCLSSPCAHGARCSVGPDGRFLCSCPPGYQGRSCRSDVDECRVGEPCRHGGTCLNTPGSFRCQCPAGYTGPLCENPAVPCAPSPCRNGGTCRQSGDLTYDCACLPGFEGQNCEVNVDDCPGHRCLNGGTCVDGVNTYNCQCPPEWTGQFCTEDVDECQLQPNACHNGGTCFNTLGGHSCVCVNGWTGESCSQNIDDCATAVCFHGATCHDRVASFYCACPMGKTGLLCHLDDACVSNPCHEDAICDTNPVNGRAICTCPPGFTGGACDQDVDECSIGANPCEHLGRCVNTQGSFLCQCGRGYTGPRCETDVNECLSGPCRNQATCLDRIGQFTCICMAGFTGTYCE
Protocol: The binding affinity and kinetics of binding of antibody 4F11 to recombinant human Notch3 extracellular domain (containing EGF like domains 1-11) Fc fusion protein (rhNotch3-Fc (R&D Systems, Inc., Minneapolis, Minn.)) were measured by surface plasmon resonance using a Biacore® T100 instrument (GE Healthcare, Piscataway, N.J.).
Rabbit anti-mouse IgGs (GE Healthcare) were immobilized on carboxymethylated dextran CM4 sensor chips (GE Healthcare) by amine coupling, according to a standard protocol. Analyses were performed at 25° C. and 37° C. using PBS containing 0.05% surfactant P20 as running buffer. The antibody was captured in individual flow cells at a flow rate of 10 μl/minute. Injection time was varied for each antibody to yield an Rmax between 30 and 60 resonance units (RU). Buffer or rhNotch3-Fc diluted in running buffer was injected sequentially over a reference surface (no antibody captured) and the active surface (antibody to be tested) for 240 seconds at 60 μl/minute. The dissociation phase was monitored for up to 1500 seconds. The surface was then regenerated with two 60-second injections of 10 mM Glycine-HCl, pH 2.25, at a flow rate of 30 μl/minute. The rhNotch3-Fc concentration range tested was 100 nM to 3.125 nM (2 fold dilution).
Kinetic parameters were determined using the kinetic function of the BIAevaluation software (GE Healthcare) with double reference subtraction. Kinetic parameters for the antibody, kₐ (association rate constant), kd (dissociation rate constant) and KD (equilibrium dissociation constant) were determined.

[5] = target: T3, rhNotch1-Fc (human, UniProt P46531 19-526); assay: BLI (Octet QK): rhNotch1-Fc loaded on anti-human-Fc sensors, then antibody 4F11 in solution
T3 construct: also called human Notch1 protein; R&D Cat. No. 3647-TK-050
Protocol: Antibody 4F11 was tested for binding to human Notch1, human Notch2, or human Notch3 proteins. Binding measurements were made by biolayer interferometry (BLI), using a FortéBio Octet® QK instrument (FortéBio, Menlo Park, Calif.). Anti-human-Fc sensors were soaked in PBS containing 1 mg/ml BSA for five minutes prior to binding of antibodies. Then the following proteins (400 nM, in PBS containing 1 mg/ml BSA) were allowed to bind to the sensors: rhNotch1-Fc (R&D Systems, Minneapolis, Minn.; Cat. No. 3647-TK-050), rhNotch2-Fc (R&D Cat. No. 3735-NT-050), rhNotch3-Fc (R&D Cat. No. 1559-NT-050), or rmNotch3-Fc (R&D Cat. No. 1308-NT-050). Notch protein bound sensors were immersed in antibody solution (50 μg/ml) to allow binding of antibody to the Notch protein. Binding was detected by shifts in the interference pattern.

B1: antibody 4F11 (murine monoclonal anti-human Notch3) (antibody, mouse IgG1, kappa, V domains shown)
VH: EVQLVESGGGLVKPGGSLKLSCAASGFAFSSYDMSWVRQTPEKRLEWVAYISRGGGSTYYPDTVKGRFTISRDNAKNTLYLQMSSLKSEDTAMYYCGRHATTAYWYFDVWGAGTTVTVSS
VL: DVVMTQTPLSLPVSLGDQASISCRSSQSLVHTNGNTYLHWYLQKPGQSPKLLIYKVSNRFSGVPDRFSGSGSGTDFTLKISRVEAEDLGVYFCSQSTHVPWTFGGGTKLEIKR
notes: Mouse IgG1 kappa purified from hybridoma; also called mu4F11; murine 4F11
[1]
  EC50, inhibition of Notch3-dependent reporter activity stimulated by DLL1: 6 nM
  EC50, inhibition of Notch3-dependent reporter activity stimulated by DLL4: 4.7 nM
  EC50, inhibition of Notch3-dependent reporter activity stimulated by Jag1: 2.6 nM
  EC50, inhibition of Notch3-dependent reporter activity stimulated by Jag2: 0.4 nM
[2]
  Kd: 0.963 nM
[3]
  Kd: 2.58 nM
[4]
  Kd: 0.78 nM
  koff: 5.7e-05 s⁻¹
  kon: 75000 M⁻¹ s⁻¹
[5]
  binding result: no binding
